From US20240398899A1 (priority 2021, published 2024)
Where “and” joins values, the source holds several entries; their conditions need not be identical. Equal values may be shown once.

Legend:
[1] = tested on: Brain NGF (Nerve Growth Factor); experiment: Brain biomarker ELISA, scopolamine induced dementia; format: in vivo, Mus musculus (Swiss Albino); settings: for brain nerve growth factor (NGF) Mean: scopolamine 2.5 mg/kg i.p., mice
Description: Healthy male Swiss albino mice (n=48) were selected and randomized based on body weight (n=8 per Group) into 6 groups as mentioned in table no-1. The control group G1 was treated intravenously with vehicle daily till the experiment completion. Group G2 was considered as negative control and treated with vehicle. […] Group G4, G5 &G6 animals were treated with the test item recombinant lectin protein having SEQ ID NO: 1 at the dose of 0.5 mg/kg, 0.25 mg/kg and 0.125 mg/kg, respectively. All the test items were given intravenously (i.v) daily at the dose volume of 5 ml/kg for 14 Days. The body weight was recorded daily throughout the experimental period. […] One hour after the last dose of test items (on Day 14) all the animals were injected with scopolamine hydrobromide at the dose of 2.5 mg/kg, i.p., except the normal control group G1. Passive avoidance test was conducted 30 min after scopolamine injection.
After passive avoidance test screening models of memory, the animals were sacrificed humanely. The whole brain was carefully removed from the skull and weighed. Brain was dissected into two portions
10% w/v brain homogenate (100 mg/mL) was prepared by homogenizing it in ice-chilled phosphate buffer. The homogenate was subsequently centrifuged using a refrigerated centrifuge at 3000 rpm for 10 min, and the supernatant was separated and used for the biochemical estimations.
Following biomarkers was estimated using ELISA kit as per manufacturer's instruction. • Brain NGF (Nerve Growth Factor), CUSABIO, Catalog No. CSB-E04684m • Acetylcholinesterase, CUSABIO, Catalog No. CSB-E17521m • TNF alpha, CUSABIO, Catalog No. CSB-E04741m

[2] = tested on: SH-SY5Y neuronal cells; experiment: Cytoprotective effect against MPP+ iodide induced damage, MTT assay; settings: MPP+ iodide 1 mM
Description: The Human Neuronal SH-SY5Y Cells were counted using hemocytometer and plated in 96 well plate at a density of 25,000 cells/well and incubated at 37° C. for 24 h. After incubation, cells were treated with recombinant lectin protein having the sequence of SEQ ID NO: 1 at concentrations ranging from 0.001 μg/ml 50 μg/ml for 24 h. After 24 h of treatment, cells were exposed to neurotoxin (MPP+ iodide, 1 mM) for 24 h. Cells treated with MPP+ iodide alone were included as negative control. Untreated cells were included as control. […] After treatment, the cytoprotective effect of SEQ ID NO: 1 on cell viability was assessed by 3-(4,5-dimethythiazol-2-yl)-2,5-diphenyl tetrazolium bromide (MTT) assay: The plate was taken out and 20 μl of 5 mg/ml of MTT 3-(4,5-dimethythiazol-2-yl)-2,5-diphenyl tetrazolium bromide solution was added to all the wells. The SH-SY5Y cells were incubated for 3 h at 37° C. The supernatant was aspirated and 150 μl of DMSO was added to each well to dissolve formazan crystals. The absorbance of each well was read at 540 nm using Synergy HT micro plate reader. The protective effect of the SEQ ID NO: 1 on survival of SH-SY5Y cells against MPP+ iodide induced damage was determined as: The viability of cells was determined as:
Where, the percentage cytotoxicity corresponding to each treatment was calculated as follows:
[formula] • X=Absorbance of cells treated with MPP+ iodide/recombinant lectin having SEQ ID NO: 1+MPP+Iodide • R=Absorbance of Control cells (Untreated) • Percentage protection was calculated as:
[(Absorbance of SEQ ID NO:1+MPP+Iodide)−(Absorbance of MPP+Iodide)/(Absorbance of Untreated)−(Absorbance of MPP+Iodide alone)]*100

[3] = tested on: neuronal cells (pc12); experiment: Neurite formation, basal model; format: cell-based, rat
Description: Cells were counted using haemocytometer and plated in 24-well plates at the densities corresponding to 1×10^4 cells/well/500 μl of the growth medium. The cells were then incubated for 48 h in 5% CO2 incubator at 37° C. Effect of Recombinant Lectin having SEQ ID NO: 1 on neurite formation was evaluated in both basal and MPP+ damage induced model.
For basal model the percent increase in neurite formation was determined as follows

[4] = tested on: Cerebral Cortex and Hippocampus; experiment: Brain histopathology (H&E), scopolamine induced dementia; format: in vivo, Mus musculus (Swiss Albino)
Description: Mouse brains were collected after humane sacrifice and fixed in 10% neutral buffered formalin. Then, the brain tissue was trimmed, processed and embedded in paraffin. 5 Micron sections were prepared in slide as a specimen for hematoxylin-eosin (H&E) staining. The hippocampal lesions were assessed microscopically at 100× magnification.
Detailed histological investigation was performed H&E stained brain tissues. Scoring was given according to the neuronal damage. […] The grading criteria for Histopathology score was: Normal or no injury—0; Rare neuronal injury (<5 clusters)—1; Occasional neuronal injury (5-15 clusters)—2; Frequent neuronal injury (>15 clusters)—3; Diffused neuronal injury-4.

[5] = G4: 0.5 mg/kg i.v. qdx14, score 0 normal to 4 diffused neuronal injury
[6] = G5: 0.25 mg/kg i.v. qdx14, score 0 normal to 4 diffused neuronal injury
[7] = G6: 0.125 mg/kg i.v. qdx14, score 0 normal to 4 diffused neuronal injury

B1: SEQ ID NO: 1: variant of the S. rolfsii lectin amino acid sequence (reported as Rec-2 in WO2010/095143) (protein)
chain: TYKITVRVYQTNPDAFFHPVEKTVWKYANGGTWTITDDQHVLTMGGSGTSGTLRFHADNGESFTATFGVHNYKRWCDIVTNLAADETGMVINQQYYSQKNREEARERQLSNYQVKNAKGRNFQIVYTEAEGNDLHANLIIG
- level of NGF (brain) ([1]; 0.25 mg/kg, scopolamine treated mice): 62 µg/mL
- brain nerve growth factor (NGF) Mean ([1]; G4: 0.5 mg/kg i.v. qdx14): 71.6 pg/mL and 71.59 pg/mL
- brain nerve growth factor (NGF) Mean ([1]; G5: 0.25 mg/kg i.v. qdx14): 61.96 pg/mL
- brain nerve growth factor (NGF) Mean ([1]; G6: 0.125 mg/kg i.v. qdx14): 38.62 pg/mL
- Percentage Protection ([2]; 0.001 μg/mL): 58.6%
- Percentage Viability (w.r.t control) ([2]; 0.001 μg/mL): 85.1%
- Percentage cytotoxicity ([2]; 0.001 μg/mL): 14.9%
- Percentage Protection ([2]; 0.01 μg/mL): 61.8%
- Percentage Viability (w.r.t control) ([2]; 0.01 μg/mL): 86.3%
- Percentage cytotoxicity ([2]; 0.01 μg/mL): 13.7%
- Percentage Protection ([2]; 0.05 μg/mL): 68.8%
- Percentage Viability (w.r.t control) ([2]; 0.05 μg/mL): 88.8%
- Percentage cytotoxicity ([2]; 0.05 μg/mL): 11.2%
- Percentage Protection ([2]; 0.1 μg/mL): 52.6%
- Percentage Viability (w.r.t control) ([2]; 0.1 μg/mL): 83%
- Percentage cytotoxicity ([2]; 0.1 μg/mL): 17%
- Percentage Protection ([2]; 1 μg/mL): 40.2%
- Percentage Viability (w.r.t control) ([2]; 1 μg/mL): 78.8%
- Percentage cytotoxicity ([2]; 1 μg/mL): 21.2%
- Percentage Protection ([2]; 5 μg/mL): 49.6%
- Percentage Viability (w.r.t control) ([2]; 5 μg/mL): 82.1%
- Percentage cytotoxicity ([2]; 5 μg/mL): 17.9%
- Percentage Protection ([2]; 10 μg/mL): 85.6%
- Percentage Viability (w.r.t control) ([2]; 10 μg/mL): 94.9%
- Percentage cytotoxicity ([2]; 10 μg/mL): 5.1%
- Percentage Protection ([2]; 25 μg/mL): 78.6%
- Percentage Viability (w.r.t control) ([2]; 25 μg/mL): 92.4%
- Percentage cytotoxicity ([2]; 25 μg/mL): 7.6%
- Percentage Protection ([2]; 50 μg/mL): 62.1%
- Percentage Viability (w.r.t control) ([2]; 50 μg/mL): 86.6%
- Percentage cytotoxicity ([2]; 50 μg/mL): 13.4%
- % Protection in the formation of Neurites (w.r.t. MPP+) ([3]; 0.001 μg/ml): 54.7%
- Average No. of Neurites ([3]; 0.001 μg/ml): 27
- % Protection in the formation of Neurites (w.r.t. MPP+) ([3]; 0.01 μg/ml): 47.2%
- Average No. of Neurites ([3]; 0.01 μg/ml): 26
- % Protection in the formation of Neurites (w.r.t. MPP+) ([3]; 0.1 μg/ml): 18.9%
- Average No. of Neurites ([3]; 0.1 μg/ml): 21
- % Protection in the formation of Neurites (w.r.t. MPP+) ([3]; 5 μg/ml): 34%
- Average No. of Neurites ([3]; 5 μg/ml): 24
- Histopathology (Mean score) Cerebral Cortex Cortex [4, 5]: 0
- Histopathology (Mean score) Cerebral Cortex Meninges [4, 5]: 0
- Histopathology (Mean score) Hippocampus CA1 [4, 5]: 0
- Histopathology (Mean score) Hippocampus CA3 [4, 5]: 0.67
- Histopathology (Mean score) Hippocampus DG [4, 5]: 0
- Histopathology (Mean score) Cerebral Cortex Cortex [4, 6]: 0
- Histopathology (Mean score) Cerebral Cortex Meninges [4, 6]: 0
- Histopathology (Mean score) Hippocampus CA1 [4, 6]: 0
- Histopathology (Mean score) Hippocampus CA3 [4, 6]: 0.6
- Histopathology (Mean score) Hippocampus DG [4, 6]: 0
- Histopathology (Mean score) Cerebral Cortex Cortex [4, 7]: 0
- Histopathology (Mean score) Cerebral Cortex Meninges [4, 7]: 0
- Histopathology (Mean score) Hippocampus CA1 [4, 7]: 0
- Histopathology (Mean score) Hippocampus CA3 [4, 7]: 1
- Histopathology (Mean score) Hippocampus DG [4, 7]: 0
